In test [1] the target is T1, biotinylated recombinant human αvβ6 integrin (human, UniProt P06756 31-1048; P18564 22-709, biotinylated (which chain is not stated) | biotinylated (which chain is not stated)).
T1 construct: integrin alpha-V, human, recombinant; integrin beta-6, human, recombinant; Detected by HRP-labeled streptavidin through the biotin; also called biotinylated-αvβ6; source: bought: Acros CROBiosystems (cat. IT6-H82E4)
The test is described as follows: ELISA; competitive integrin binding assay (taken as Assay 3): plates coated with human latent TGFβ1; various amounts of peptide 5a or 5a-HSA with 10 ng/ml biotinylated αvβ6 or αvβ8 in 20 mM Tris-HCl pH 7.4, 150 mM sodium chloride, 1 mM manganese chloride, 0.05% Tween-20, 0.5% BSA, 1 h; HRP-labeled streptavidin. The conditions noted are these: both partners purified. In general terms: In an ELISA, binding on a coated surface is turned into a signal by an enzyme label.

The target in test [2] is T2, biotinylated recombinant human αvβ8 integrin (human, UniProt P06756 31-1048; P26012 43-684, biotinylated (which chain is not stated) | biotinylated (which chain is not stated)).
T2 construct: integrin alpha-V, human, recombinant; integrin beta-8, human, recombinant; Detected by HRP-labeled streptavidin through the biotin; also called biotinylated-αvβ8; source: bought: Acros CROBiosystems (cat. IT8-H82W5)
Described as above. The conditions noted are these: both partners purified.

We go through one molecule from article PMC11889887, “Blockade of αvβ6 and αvβ8 integrins with a chromogranin A-derived peptide inhibits TGFβ activation in tumors and suppresses tumor growth” (Journal of Experimental & Clinical Cancer Research : CR, 2025).

Bridge positions count the residues as written; N and C are the ends. Square brackets hold non-standard residues; d marks the D form. Ends that are not written are not given here. Lys(N3) = [N-]=[N+]=NCCCC[C@H](N)C(=O)O; Pra = C#CC[C@H](N)C(=O)O

For orientation: Ki means a dissociation constant, usually derived from enzyme kinetics or from competition with a known ligand. Turning to CFETLRGDLRILSILR[Pra]QNL[Lys(N3)]KELQD-NH2 (triazole 17-21) [peptide 5a], the Ki is 1.7 nM in test [1] and 3.9 nM in test [2].
